Here are results for 2 molecules from patent US20100098682A1 (published 2010).

Assay [1] addresses T1, Amyloid precursor protein (APP), full length (human, UniProt P05067-4 18-695).
T1 construct: whole, on cells; Used for transfected APP (HeLa), stably expressed APP (HEK293APP, γ30 cells) and endogenous APP of human brain homogenates; also called full length APP; mature, glycosylated APP
Briefly: anti-myc immunoprecipitation from γ30 cell lysates, western blot. As for the experimental part:
(§1) FIG. 4 is photographs of western blots establishing that the first 102 amino acids of BRI2 are necessary to inhibit the efficient cleavage of C99 and that the same region is necessary for the binding of BRI2 to C99 of APP. […] HC indicates the heavy chain of myc antibody used in the immunoprecipitation.
(§2) Immunoprecipitation and western blot. Unless otherwise noted, all immunoprecipitation procedures were performed at 4° C. The transfected cells were lysed in Buffer A [20 mM Hepes/NaOH pH 7.4, 1 mM EDTA, 1 mM DTT, 150 mM NaCl, 0.5% (w/v) TritonX-100] containing 10% (v/v) Glycerol for 30 min, and the lysates were cleared at 20,000 g for 10 min. For FLAG immunoprecipitation, the cleared lysates were mixed with 20 μl of FLAG-M2 beads (Sigma) for 2 hours, and washed three times with Buffer A. The precipitates were boiled in 60 μl of 2×SDS sample buffer and subjected to western blot. For other immunoprecipitation, the cleared lysates were incubated with antibodies for one hour, and mixed with 20 μl of protein A/G beads (Pierce), washed and processed as above. Human brains (a generous gift of Dr. Peter Davies) were homogenized in Buffer A containing 10% (v/v) Glycerol using a Dounce homogenizer. The proteins were extracted overnight with the protein concentration at 5 mg/ml. Extracted proteins were cleared at 20,000 g for one hour. The supernatants were incubated with the indicated antibodies and protein A/G beads blocked with PBS containing 1% (w/v) BSA. Precipitants were washed and processed as described above.
Background: A western blot detects proteins with antibodies after separation by electrophoresis.

The target of assay [2] is T2, C99, COOH-terminal fragment of 99 amino acids of APP (human, UniProt P05067 672-770).
T2 construct: domain: COOH-terminal fragment of 99 amino acids (C99); Produced in cells from APP by processing; also endogenous C99 of human brain
Described as above. As for the experimental part: as §1, §2

B1: myc-tagged BRI2 C-terminal deletion, first 80 amino acids (other)
chain: MVKVTFNSALAQKEAKKDEPKSGEEALIIPPDAVAVDCKDPDDVVPVGQRRAWCWCMCFGLAFMLAGVILGGAYLYKYFA
notes: Expressed in γ30 cells; also called BRI2 1-80; not shown: myc tag
As for B1, the binding result in assay [1] and in assay [2] was “no binding” in each case.

B2: myc-tagged BRI2 C-terminal deletion, first 93 amino acids (other)
chain: MVKVTFNSALAQKEAKKDEPKSGEEALIIPPDAVAVDCKDPDDVVPVGQRRAWCWCMCFGLAFMLAGVILGGAYLYKYFALQPDDVYYCGIKY
notes: Expressed in γ30 cells; also called BRI2 1-93; not shown: myc tag
In the case of B2, the binding result in assay [1] and in assay [2] was “no binding” each time.
